According to PMC4100928, “Evolutionary Divergence in the Catalytic Activity of the CAM-1, ROR1 and ROR2 Kinase Domains” (PLoS ONE, 2014):
Changes are numbered by the printed parent chain. Names may count otherwise.

Legend:
MuSK ICD = target: T1, MuSK ICD (Homo sapiens, UniProt O15146); assay: autophosphorylation, anti-phosphotyrosine immunoblot; format: biochemical; details: 2 mM ATP, 20 mM MgCl2, 0.2 mM orthovanadate, about 18 h at 4 °C
T1 sequence (O15146 519-869): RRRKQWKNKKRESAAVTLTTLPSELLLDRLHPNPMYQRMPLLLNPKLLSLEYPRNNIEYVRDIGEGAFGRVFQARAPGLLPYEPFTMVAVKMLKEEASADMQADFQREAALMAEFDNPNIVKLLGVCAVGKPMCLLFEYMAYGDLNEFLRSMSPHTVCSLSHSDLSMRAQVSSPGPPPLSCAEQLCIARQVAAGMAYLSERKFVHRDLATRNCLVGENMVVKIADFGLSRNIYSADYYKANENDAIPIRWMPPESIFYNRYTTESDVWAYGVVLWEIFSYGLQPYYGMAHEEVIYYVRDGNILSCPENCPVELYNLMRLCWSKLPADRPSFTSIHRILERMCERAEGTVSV

ROR1 ICD [1] = target: T2, ROR1 ICD (Homo sapiens, UniProt Q01973); assay: [gamma-32P]ATP phosphocellulose paper binding assay, initial rates; format: biochemical; details: 20 mM Mg2+ or 5 mM Mn2+; 5 mM activation loop peptide; 20 °C; limit of assay
T2 sequence (Q01973 428-937): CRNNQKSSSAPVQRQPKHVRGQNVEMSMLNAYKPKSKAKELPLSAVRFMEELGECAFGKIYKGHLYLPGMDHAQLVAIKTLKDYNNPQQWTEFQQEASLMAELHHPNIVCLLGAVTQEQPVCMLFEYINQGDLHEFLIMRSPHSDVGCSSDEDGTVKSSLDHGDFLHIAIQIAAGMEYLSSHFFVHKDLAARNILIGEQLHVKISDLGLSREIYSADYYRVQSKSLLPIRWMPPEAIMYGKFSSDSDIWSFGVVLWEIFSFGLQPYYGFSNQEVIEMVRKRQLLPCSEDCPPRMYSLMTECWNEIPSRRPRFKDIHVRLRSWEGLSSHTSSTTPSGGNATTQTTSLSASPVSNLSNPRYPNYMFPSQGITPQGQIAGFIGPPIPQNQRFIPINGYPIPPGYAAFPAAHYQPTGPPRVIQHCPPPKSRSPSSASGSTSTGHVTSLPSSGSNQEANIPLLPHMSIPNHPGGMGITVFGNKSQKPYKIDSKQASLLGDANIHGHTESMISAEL
Source text: (§1) [gamma-32P]ATP phosphocellulose paper binding assay, initial rates on ROR1 ICD

ROR1 ICD [2] = target: T3, ROR1 ICD (Homo sapiens, UniProt Q01973, C482G); assay: as above; format: biochemical; details: 20 mM Mg2+ or 5 mM Mn2+; 5 mM activation loop peptide; 20 °C; limit of assay
T3 sequence (Q01973 428-937 C482G): T2 sequence (Q01973 428-937) with C55G
Source text: as §1

[3] = substrate: Nc1ncnc2c1ncn2[C@@H]1O[C@H](COP(=O)(O)OP(=O)(O)OP(=O)(O)O)[C@@H](O)[C@H]1O; assay: as above; format: biochemical, Homo sapiens; details: 20 mM Mg2+ or 5 mM Mn2+, 5 mM activation loop peptide, 20 °C, limit of assay
Source text: [gamma-32P]ATP phosphocellulose paper binding assay, initial rates on ROR2 ICD

[4] = substrate: Nc1ncnc2c1ncn2[C@@H]1O[C@H](COP(=O)(O)OP(=O)(O)OP(=O)(O)O)[C@@H](O)[C@H]1O; assay: as above; format: biochemical, Caenorhabditis elegans; details: 5 mM activation loop peptide, 20 °C
Source text: [gamma-32P]ATP phosphocellulose paper binding assay, initial rates on CAM-1 ICD

[5] = 20 mM Mg2+ or 5 mM Mn2+, limit of assay
[6] = phosphorylated enzyme (pre-incubated with ATP/Mg2+) 10 µM, 20 mM Mg2+
[7] = unphosphorylated enzyme 10 µM, 20 mM Mg2+

For `Nc1ncnc2c1ncn2[C@@H]1O[C@H](COP(=O)(O)OP(=O)(O)OP(=O)(O)O)[C@@H](O)[C@H]1O` [ATP], the “autophosphorylation, anti-phosphotyrosine immunoblot” value (MuSK ICD) was “ICDs of receptors ROR1, ROR2, CAM-1 and MuSK were incubated overnight”, the Km (ROR1 ICD [1]) was > 15 mM and the Km (ROR1 ICD [2]) was > 15 mM.

B1: ROR2 ICD (Homo sapiens) (protein)
chain: CRNKQKASASTPQRRQLMASPSQDMEMPLINQHKQAKLKEISLSAVRFMEELGEDRFGKVYKGHLFGPAPGEQTQAVAIKTLKDKAEGPLREEFRHEAMLRARLQHPNVVCLLGVVTKDQPLSMIFSYCSHGDLHEFLVMRSPHSDVGSTDDDRTVKSALEPPDFVHLVAQIAAGMEYLSSHHVVHKDLATRNVLVYDKLNVKISDLGLFREVYAADYYKLLGNSLLPIRWMAPEAIMYGKFSIDSDIWSYGVVLWEVFSYGLQPYCGYSNQDVVEMIRNRQVLPCPDDCPAWVYALMIECWNEFPSRRPRFKDIHSRLRAWGNLSNYNSSAQTSGASNTTQTSSLSTSPVSNVSNARYVGPKQKAPPFPQPQFIPMKGQIRPMVPPPQLYVPVNGYQPVPAYGAYLPNFYPVQIPMQMAPQQVPPQMVPKPSSHHSGSGSTSTGYVTTAPSNTSMADRAALLSEGADDTQNAPEDGAQSTVQEAEEEEEGSVPETELLGDCDTLQVDEAQVQLEA
For B1, the kcat [3] was <8.3e-06 s⁻¹ and the kcat/Km [3] was < 0.0005 M⁻¹ s⁻¹.

B2: ROR2 ICD (Homo sapiens; D482G) (protein)
chain: B1 chain with D55G
In the case of B2, the kcat [3] is reported as <8.3e-06 s⁻¹ and the kcat/Km [3] is reported as < 0.0005 M⁻¹ s⁻¹.

B3: CAM-1 ICD (Caenorhabditis elegans; K624R) (protein)
chain: RAKKKSQKTRHQNAHCSSAPSVINSAANSAYYRKLNGTSTPIMGRVPPHVEMTSLLPSAQHLGPPPYPMDQHLQQARRFPSQEPIDDNSYKVFEITPSQLSVREKIGEGQFGVVHSGIYTSGLFAPEPMAVAVRKCRHDATNAERAQLEQEIRAVATFDHPNVIKLIGVCYMDNSLLAVFEYMVHGDLHELLKVRVPPADHDMGGITEANAEFLYIATQIALGMEYLASMSFVHRDLATRNCLVGDTRTIKIADFGLMRTSYGSDYYKMLHRSWMPVRWMSKEAIEQGRFSEASDVWSFGVTLWEIWSFGRQPYEGASNQQVIELVANRHLLECPHNCPTNIYSLMVECWHENIERRPTFSEIRSRLQSWSLASPAHSILQQHNNRAGSHSGSSGAGRPPTHQRGYPSQKLHRRVEGASPLMKRHDANYAYSEDGDSD
B3 was tested, and the Km ([4]; 20 mM Mg2+) was 6.69 ± 1.12 mM, the kcat ([4]; 20 mM Mg2+) was 0.00333 ± 0.00033 s⁻¹ and the kcat/Km ([4]; 20 mM Mg2+) was 0.5 M⁻¹ s⁻¹.

B4: CAM-1 ICD (Caenorhabditis elegans; G599D) (protein)
chain: B3 chain with G109D, R134K
For B4, the kcat [4, 5] was <8.3e-06 s⁻¹ and the kcat/Km [4, 5] was < 0.0005 M⁻¹ s⁻¹.

B5: CAM-1 ICD (Caenorhabditis elegans; D744N) (protein)
chain: B3 chain with R134K, D254N
For B5, the kcat [4, 5] was <8.3e-06 s⁻¹ and the kcat/Km [4, 5] was < 0.0005 M⁻¹ s⁻¹.

B6: CAM-1 ICD (Caenorhabditis elegans; G599C) (protein)
chain: B3 chain with G109C, R134K
With B6 the kcat [4, 5] was <8.3e-06 s⁻¹ and the kcat/Km [4, 5] was < 0.0005 M⁻¹ s⁻¹.

B7: CAM-1 ICD (Caenorhabditis elegans) (protein)
chain: B3 chain with R134K
B7 showed a Km [4, 6] of 3.35 ± 0.57 mM, a kcat [4, 6] of 0.0422 ± 0.003 s⁻¹ and a kcat/Km [4, 6] of 12.7 M⁻¹ s⁻¹. For the same molecule, the Km [4, 7] was 3.53 ± 0.34 mM, the kcat [4, 7] was 0.0438 ± 0.00183 s⁻¹ and the kcat/Km [4, 7] was 12.5 M⁻¹ s⁻¹.
